Experimental data taken from paper PMC3036652, “Functional Analysis of an Acid Adaptive DNA Adenine Methyltransferase from Helicobacter pylori 26695” (PLoS ONE, 2011).

Experiments:
[1] = biological target: T1, HP0593 MTase (Helicobacter pylori, UniProt O25315); assay: EMSA of enzyme with […]-labelled duplex […] DNA; format: binding; conditions: on ice, no divalent metal, ternary complex with cognate DNA, indirect read-out
T1 construct: gene HP_0593; full-length, 1797 bp gene in pET14b (NdeI/BamHI), N-terminal His6 tag kept, E. coli BL21(DE3) pLysS; monomer and dimer in solution, functions as dimer
T1 sequence (O25315 1-598): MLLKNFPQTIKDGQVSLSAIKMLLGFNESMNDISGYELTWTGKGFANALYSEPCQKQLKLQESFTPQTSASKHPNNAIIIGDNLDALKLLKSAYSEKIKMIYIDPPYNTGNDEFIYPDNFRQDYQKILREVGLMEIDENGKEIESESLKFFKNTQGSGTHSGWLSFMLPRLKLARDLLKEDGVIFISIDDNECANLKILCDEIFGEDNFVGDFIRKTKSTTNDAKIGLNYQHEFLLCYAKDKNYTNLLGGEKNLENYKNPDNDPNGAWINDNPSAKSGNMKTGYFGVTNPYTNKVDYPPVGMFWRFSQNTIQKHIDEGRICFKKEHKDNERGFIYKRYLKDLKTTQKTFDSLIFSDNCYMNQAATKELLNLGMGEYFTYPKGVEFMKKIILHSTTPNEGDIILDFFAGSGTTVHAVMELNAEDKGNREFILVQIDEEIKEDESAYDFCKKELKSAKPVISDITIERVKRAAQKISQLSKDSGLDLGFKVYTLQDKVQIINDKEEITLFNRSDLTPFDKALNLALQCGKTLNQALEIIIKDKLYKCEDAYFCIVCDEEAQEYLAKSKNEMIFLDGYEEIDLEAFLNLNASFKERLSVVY

[2] = biological target: HP0593 DNA-(N6-adenine)-methyltransferase (Helicobacter pylori 26695); assay: SEC; reinjection of the dimer peak of the gel filtration; data not shown
[3] = biological target: HP0593 DNA-(N6-adenine)-methyltransferase (Helicobacter pylori 26695); assay: SEC
[4] = biological target: HP0593 DNA-(N6-adenine)-methyltransferase (Helicobacter pylori 26695); assay: cross-linking
[5] = biological target: HP0593 DNA-(N6-adenine)-methyltransferase (Helicobacter pylori 26695); assay: cross-linking; 0.06% and 0.08% glutaraldehyde-treated HP0593 MTase, products analysed by MALDI-MS; data not shown
[6] = biological target: T2, HP0593 DNA-(N6-adenine)-methyltransferase (HP0593 MTase) (Helicobacter pylori 26695, UniProt O25315 1-598); assay: EMSA; no cofactor; up to 3.0 µM protein; EMSA: 10 mM potassium phosphate pH 5.5, 7 mM β-mercaptoethanol, 10% glycerol, no divalent metal, 10 min on ice, 0.5-5.0 µM protein, ~100 nM DNA, gel 0.5x TBE 4°C; SPR: 10 mM HEPES pH 7.4, 100 mM NaCl, 0.05% P-20, ±1.0 mM MnCl2, 25°C, 1:1 Langmuir global fit; conditions: protein: recombinant; tags: N-terminal His6 (pET14b); label: 32P; blunt
T2 sequence: T1 sequence (O25315 1-598)

[7] = biological target: T2, HP0593 …; assay: SPR; 1.0 mM MnCl2; EMSA: 10 mM potassium phosphate pH 5.5, 7 mM β-mercaptoethanol, 10% glycerol, no divalent metal, 10 min on ice, 0.5-5.0 µM protein, ~100 nM DNA, gel 0.5x TBE 4°C; SPR: 10 mM HEPES pH 7.4, 100 mM NaCl, 0.05% P-20, ±1.0 mM MnCl2, 25°C, 1:1 Langmuir global fit; conditions: protein: recombinant; tags: N-terminal His6 (pET14b); label: 5' biotin on top strand, immobilized on SA chip; blunt

## Nc1ncnc2c1ncn2[C@@H]1O[C@H](CSCC[C@H](N)C(=O)O)[C@@H](O)[C@H]1O [AdoHcy]
[1]; 5 µM AdoHcy, 10 mM potassium phosphate pH 5.5
  EMSA of enzyme with 32P-labelled duplex 2 DNA: This suggested the formation of a stable ternary complex in the presence of AdoHcy

## Nc1ncnc2c1ncn2[C@@H]1O[C@H](C[C@@H](N)CC[C@H](N)C(=O)O)[C@@H](O)[C@H]1O [sinefungin]
[1]; 10 µM sinefungin, pH 5.5
  EMSA of enzyme with 32P-labelled duplex 2 DNA: which is stabilized by AdoHcy and in some extent by sinefungin

## HP0593 DNA-(N6-adenine)-methyltransferase (enzyme)
[2]
  stoichiometry N: 2
[3]
  stoichiometry N: 2
[4]
  stoichiometry N: 2
[5]
  stoichiometry N: 2

B1: duplex 19 (lacks GCAG) (dsDNA)
DNA 1: GATCAATAGATCCCCGGATCATTTACATT
DNA 2: AATGTAAATGATCCGGGGATCTATTGATC
[6]
  binding result: no binding

B2: duplex 18 (dsDNA)
DNA 1: GATCAATAGATGCGCAGATCATTTACATT
DNA 2: AATGTAAATGATCTGCGCATCTATTGATC
[7]
  Kd: 4.58 nM
